In test [1] the target is T1, human P2X4 (human, UniProt Q99571 1-388).
T1 sequence (looked up): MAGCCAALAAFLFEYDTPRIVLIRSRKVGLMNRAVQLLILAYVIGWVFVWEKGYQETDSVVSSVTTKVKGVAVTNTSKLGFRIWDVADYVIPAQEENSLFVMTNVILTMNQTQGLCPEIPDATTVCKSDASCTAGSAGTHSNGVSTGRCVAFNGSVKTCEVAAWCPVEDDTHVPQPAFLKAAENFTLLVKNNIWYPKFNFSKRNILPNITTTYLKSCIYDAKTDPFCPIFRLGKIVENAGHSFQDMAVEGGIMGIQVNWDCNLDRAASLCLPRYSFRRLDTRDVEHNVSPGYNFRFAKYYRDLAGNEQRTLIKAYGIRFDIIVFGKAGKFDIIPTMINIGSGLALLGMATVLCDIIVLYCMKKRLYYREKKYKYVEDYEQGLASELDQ
Put plainly: cell-based or functional assay.

The target in test [2] is T1, human P2X4. As to the kind of experiment: cell-based or functional assay. The source holds these as a separate data set.

B1: Antibody 1 (antibody, V domains shown)
VH: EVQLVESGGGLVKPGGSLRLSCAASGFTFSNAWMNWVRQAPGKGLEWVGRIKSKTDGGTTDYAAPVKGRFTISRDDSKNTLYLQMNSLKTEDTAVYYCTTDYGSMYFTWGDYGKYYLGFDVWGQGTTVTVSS
VL: SYVLTQPPSVSVSPGQTATITCSGDTLPQRYAYWYQQKPGQAPILLIYKDSERPSGIPDRFSGSSSGTTVALTISGVQAEDEADYYCQSTDTSGVVFGGGTKVTVL
On to B1, for which the “IC50 (nM), inhibition of human P2X4 currents in electrophysiology” value (“IC50 (nM), inhibition … in electrophysiology” for short) with human P2X4 [1] was 19.6 nM.

B2: Antibody 3 (antibody, V domains shown)
VH: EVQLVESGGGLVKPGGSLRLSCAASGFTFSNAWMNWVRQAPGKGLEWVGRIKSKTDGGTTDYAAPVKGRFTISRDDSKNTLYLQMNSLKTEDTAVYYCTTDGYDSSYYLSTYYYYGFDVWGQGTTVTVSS
VL: SSELTQDPAASVALGQTVTITCQGDSLRSYYASWYQQKPGQAPVLVFYGKNIRPSGIPDRFSGSDSRDTASLTITGAQADDEADYYCNSRDTSGNVVFGGGTKVTVL
As for B2, the “IC50 (nM), inhibition … in electrophysiology” value with human P2X4 [1] turned out to be 50 nM.

B3: Antibody 4 (antibody, V domains shown)
VH: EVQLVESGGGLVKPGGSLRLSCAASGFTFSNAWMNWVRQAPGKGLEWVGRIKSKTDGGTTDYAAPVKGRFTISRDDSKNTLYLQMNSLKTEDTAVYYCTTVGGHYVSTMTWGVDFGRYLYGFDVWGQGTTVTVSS
VL: QSVLTQPPSVSLSPGQTARITCSGDVLSKQFGYWYQQKPGQAPVVVIYNDSERPSGIPERFSGSSSGTTVTLTITGVQAEDEADYYCQSADSSGTVLFGGGTKLTVL
As to B3, in the test with human P2X4 [2], the “IC50, inhibition of human P2X4 currents in electrophysiology” value was 3.8 nM. For the same molecule, in the test with human P2X4 [1], the “IC50 (nM), inhibition … in electrophysiology” value came out at 3.9 nM.

(Values after patent US10829540 (AstraZeneca / MedImmune, dated 2020).)
